The values that follow are results of earlier work, collected in publication PMC3204931.

The data set addresses Rac2 (Homo sapiens) (UniProt P15153).

As to PLD2 (from UniProt O14939), the Kd was 10 nM.

Broadly, the Kd is the free concentration of one partner at which half of the binding sites on the other are occupied at equilibrium, for simple one-to-one binding.
